# Reference: patent US20130180016A1
# Columns and labels:
# [1] = target: putative receptor(s) on brush border membrane vesicles (BBMV) prepared from midguts of third instars of the western corn rootworm (Diabrotica virgifera virgifera LeConte) (Diabrotica virgifera virgifera); test: homologous competition, 5 nM 125I-Cry3Ba1 on western corn rootworm BBMV (0.1 mg/ml), unlabelled Cry3Ba1 (0-2,500 nM) as competitor
# [2] = target: putative receptor(s) on brush border membrane vesicles (BBMV) prepared from midguts of third instars of the western corn rootworm (Diabrotica virgifera virgifera LeConte) (Diabrotica virgifera virgifera); test: saturation radioligand binding to western corn rootworm BBMV (0.1 mg/ml), GraphPad Prism fit
# [3] = target: putative receptor(s) on brush border membrane vesicles (BBMV) prepared from midguts of third instars of the western corn rootworm (Diabrotica virgifera virgifera LeConte) (Diabrotica virgifera virgifera)
Binder,percent of the total binding displaced [1],Kd [2],binding site concentration Bmax [2],specific binding as percent of the total binding [3]
"Cry3Ba1 trypsin core (protein, 125I-iodinated (Pierce Iodination Beads, Na125I) where used as the labelled ligand; unlabelled where used as competitor) SQDRIRELFSQAESHFRNSMPSFAVSKFEVLFLPTYAQAANTHLLLLKDAQVFGEEWGYSSEDIAEFYQRQLKLTQQYTDHCVNWYNVGLNSLRGSTYDAWVKFNRFRREMTLTVLDLIVLFPFYDVRLYSKGVKTELTRDIFTDPIFTLNALQEYGPTFSSIENSIRKPHLFDYLRGIEFHTRLRPGYSGKDSFNYWSGNYVETRPSIGSNDTITSPFYGDKSIEPIQKLSFDGQKVYRTIANTDIAAFPDGKIYFGVTKVDFSQYDDQKNETSTQTYDSKRYNGYLGAQDSIDQLPPETTDEPLEKAYSHQLNYAECFLMQDRRGTIPFFTWTHRSVDFFNTIDAEKITQLPVVKAYALSSGASIIEGPGFTGGNLLFLKESSNSIAKFKVTLNSAALLQRYRVRIRYASTTNLRLFVQNSNNDFLVIYINKTMNIDGDLTYQTFDFATSNSNMGFSGDTNDFIIGAESFVSNEKIYIDKIEFIPVQ",> 20%,7.35 nM,0.55 pmol/mg BBMV,–
"Cry35Ab1 chymotrypsin core (chymotrypsin-truncated Cry35Ab1 core protein) (protein, 125I-iodinated (Pierce Iodination Beads, Na125I) where used as the labelled ligand; unlabelled where used as competitor) MLDTNKVYEISNHANGLYAATYLSLDDSGVSLMNKNDDDIDDYNLKWFLFPIDDDQYIITSYAANNCKVWNVNNDKINVSTYSSTNSIQKWQIKANGSSYVIQSDNGKVLTAGTGQALGLIRLTDESSNNPNQQWNLTSVQTIQLPQKPIIDTKLKDYPKYSPTGNIDNGTSPQLMGWTLVPCIMVNDPNIDKNTQIKTTPYYILKKYQYWQRAVGSNVALRPHEKKSYTYEWGTEIDQKTTIINTLGFQINIDSGMKFDIPEVGGGTDEIKTQLNEELKIEYSHETKIMEKYQEQSEIDNPTDQSMNSIGFLTITSLELYRYNGSEIRIMQIQTSDNDTYNVTSYPNHQQALL",–,11.7 nM,0.78 pmol/mg BBMV,–
"mixture of Cry35Ab1+Cry34Ab1 (binary toxin) (protein, 125I-iodinated where the mixture holds the labelled ligand) chain 1: MLDTNKVYEISNHANGLYAATYLSLDDSGVSLMNKNDDDIDDYNLKWFLFPIDDDQYIITSYAANNCKVWNVNNDKINVSTYSSTNSIQKWQIKANGSSYVIQSDNGKVLTAGTGQALGLIRLTDESSNNPNQQWNLTSVQTIQLPQKPIIDTKLKDYPKYSPTGNIDNGTSPQLMGWTLVPCIMVNDPNIDKNTQIKTTPYYILKKYQYWQRAVGSNVALRPHEKKSYTYEWGTEIDQKTTIINTLGFQINIDSGMKFDIPEVGGGTDEIKTQLNEELKIEYSHETKIMEKYQEQSEIDNPTDQSMNSIGFLTITSLELYRYNGSEIRIMQIQTSDNDTYNVTSYPNHQQALL chain 2: MSAREVHIDVNNKTGHTLQLEDKTKLDGGRWRTSPTNVANDQIKTFVAESNGFMTGTEGTIYYSINGEAEISLYFDNPFAGSNKYDGHSNKSQYEIITQGGSGNQSHVTYTIQTTSSRYGHKS",–,–,–,90%
